Laboratory results reported in the nanobody polyreactivity screen of Harvey et al. (2022).

Assay: yeast display, Sf9 membrane polyspecificity reagent, FACS + sequencing; frameworks hold sequencing errors
Method in brief: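 Galactose-induced (36–48 hours) yeast carrying a synthetic nanobody display library were exposed to 10% biotinylated, detergent-solubilized Sf9 membrane reagent at 4 °C for 1 hour. FACS followed streptavidin microbead enrichment, using low and high (top ~1%) gates for expression (anti-HA) and reagent binding (streptavidin). Colony PCR, MiSeq 2 × 250 sequencing and CDR-length filtering followed. Labels for polyreactivity reflect the gate of origin.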

Sequence | polyreactivity (PSR sort gate)
QVQLVESGGGVVQAGCSLRISCAASGIFRKYAMGWYRQAPGKERELVAAITWGGGRTYYADSVKGRFTISRDNAKNTVYFQMNSLKPEDTAVYYCAAAKTGRGRGTTGYGYCGQGTQVTVSS | high polyreactivity
QVQLVESGGGVVQAGCSLRLSCAASGFTFRTNAMGWYRQAPGIEREFVAAISWSGGSTYYADSVKGRFTISRDNAKNTVYLQMNSLKPEDTAVYYCNADPFHWYYTNMYYWGQGTQVTVSS | high polyreactivity
QVQLVESGGGVVQAGGRLGLSCAASGSTFSQNPMGWYRQAPGKERELVASISSGGSTHYADSVKGRFTISRDNAKNTVYLQMNSLKPEDTAVYYCTTDLPNYVPFIVVEAYNYWGQGTQVTVSS | low polyreactivity
QVQLVESGGGVVQAGGRLRLSCAASGSIFTYYAMGWYRQAPGKERELVAAISYGGGSTYYADSVKGRFTISRDTAKNTVYLQMNSLKPEDTAVYYCNRVVGVKYGYWGQGTQVTVSS | high polyreactivity
QVQLVESGGGVVQAGGSLLLSCAASGRIFWYYAMGWYRQAHGKERELVATITRGGNTYFADSVKGRFTISRDNAKNTVYLQMNSLKPEDNAVYYCAASQRYSVIYYGFSEYDYWGQGTQVTVSS | high polyreactivity
QVQLVESGGGVVQAGGSLRISCAASGSTFGFNAMGWYRQAPGKERELVAAINNSGDSTYYADSVKGRFTISRDNAKNTVYLQMNSLKPEDTAVYYCAAPYLGRYYKNGYWGQGTQVTVSS | low polyreactivity
QVQLVESGGGVVQAGGSLRLICAASGSTFYINTMGWYRPAPGKERELVAAISWTGGRTYYADSVKGRFTISRDNAKNTVYLQLNSLKPEDTAVYYCAAYYNIPDRRRVGYDYWGQGTQVTVSS | high polyreactivity
QVQLVESGGGVVQAGGSLRLSCAASGITFEYNAMGWYRQAPGKERELVAAISLSSGSTYYADSVKGRFTISRDNAKNTVYLQMNCLKPEDTAVYYCNADWQSYGYLWHSSLYYYWGQGTQVTVSS | low polyreactivity
QVQLVESGGGVVQAGGSLRLSCAASGMGWYRQAPGKERELVATITTGGTYADSVKGRFTISRDNAKNTVYLQMNSLKPEDTAVYYCAADGLGSVYYLRYNYWGQGTQVTVSS | low polyreactivity
QVQLVESGGGVVQAGGSLRLSCAASGRIFDIYDMGWYRQAPGKERELVAAITSGRNTYYADSVKGRFTISRDNAKNTVYLQMNSLKPEDTAVSYCAAYSYPPLLWSYDYWGQGTQVTVSS | low polyreactivity
QVQLVESGGGVVQAGGSLRLSCAASGRIFERNAMGSYRQSPVKERELVARITSGGGTYYADSVKGRFTISRDNAKNTVYLQMNSLKPEDSAVYYSAVQYLYRKYRRYDYWGLGTQVTVSS | high polyreactivity
QVQLVESGGGVVQAGGSLRLSCAASGRIFGYYAMGWYRQAPGTERELVAVISSGGSTYADSVKGRFTISRDNAKNPVYLQMNSLKPEDTAVYYCAARHYWSSYRTSRSRYDYWGQGTQVTVSS | high polyreactivity
QVQLVESGGGVVQAGGSLRLSCAASGRIFNWYAMGWYRQAPGKEREFVAAINWNGDSTHYADSVKGRFTISRDNAKNTVYLLMNSLKPEDTAVYYCNARVFVTRSYYWGQGTQVNVSS | low polyreactivity
QVQLVESGGGVVQAGGSLRLSCAASGRILRGYALGWYRPAPGTERELVAAITWRGGSTYYADSVKGRFTISRDNAKNTVYLQMNSLKPEDTAVYYCAADRAYRYEMDYWGQGTQVTVSS | high polyreactivity
QVQLVESGGGVVQAGGSLRLSCAASGSIFDPYAMGWYRHARGKERELVAALNSDGSTNYADSVKGRFTISRDNAKNTDYLQLNSLKPEDTAVYYCAARTFTLRGDDSWGQGSQVTVSS | low polyreactivity
QVQLVESGGGVVQAGGSLRLSCAASGSIFPENARGWYRQAPGKERELVAAITSSDSSTYYADSVKGRFTISRDNAKNTVYLQMNSLKPEDTAVYYCAAYRVGFRFREYYWGLGTQVTVSS | low polyreactivity
QVQLVESGGGVVQAGGSLRLSCAASGSIFPYNAMGWYRPAPGKERELVAVITSSGGSTYYADSVKGRFTISRDNAKNTVYLQMNSLKPEDTAVYYVAARGYNYYFGGYDYWGQGTQVTVSS | low polyreactivity
QVQLVESGGGVVQAGGSLRLSCAASGSPFGFYTMGGYRQAPGKERELVAAISWSTGRTYYADSVKGRFTISRDKAKNTVDLQMNSLKPEDTAVYYCAADYYWKLFHEPPAVYDYDYWGQGTQVTVSS | low polyreactivity
QVQLVESGGGVVQAGGSLRLSCAASGSTFRPYAMGWYRQAPGKERELVAAITFNGDTYADSVKGRFTISRDNAKNTVYLQMNSLKPEDTAVYYCAARNWYYYLRPWTSVGGYYWGQGTQVNVSS | high polyreactivity
QVQLVESGGGVVQAGGSLRLSCAASGSTFYAYAMGWYRQAPGKERELVAGISKRVGRTYYADSVKGRFTISRDNAKNTVYLQRNSLKPEDTAVYYCAAQFYLFYEYEYWGQGTQVTVSS | high polyreactivity
QVQLVESGGGVVQAGGSLRLSCAASGSTFYPYALGWYRQAPGKERELVAGITVIDGSTYYADSVKGRFTISRDNAKNTVYLQMNSLKPEDTAVYYCAVDAPNQVQEYGYWGQGTQVTVSS | low polyreactivity
QVQLVESGGGVVQAGGSLRLSCAASGSTLRDYVMGWYRQAPGKERELVAAITSRVDDTYYADSVKGRFTISRDNAKNNVYLEMNRLKPEDTAVYYCAADYSVTLRIGGYYWFYAFDYWGQGTQVTVSS | low polyreactivity

Sequence | polyreactivity (PSR sort gate)
QVQLVESGGGVVQAGGSLRLSCAASGTTFSWYAMGGYRQAPGKERVLVAAISSGGSTNYADSVKGRFTISRDNAKNTVYLQMNSLKPEDTAVYYCAAVWSRYLISYSTGWWFEYWGQGTQVTVSS | low polyreactivity
QVQLVESGGGVVQAGGSLRLSCAATGFTFAANTKGWYRQPPGKERELVADISGRGDRTSYADSVKGRFTISRDNAKYTVYLQINSLKPEDTAVYYCAVDIFYYSNVHYYYWGQGTQVTVSS | low polyreactivity
QVQLVESGGGVVQAGGSLRLSCAATGSTFYSYAMGWYRQAPGKEREFVASITRSGVRTYYADSVKGRFTISRDNAKNTVYLQMNSLKPDDTAFYYCAAERYYFPRSYRYGYWGQGTQVTVSS | low polyreactivity
QVQLVESGGGVVQAGGSLRLSCAGSGFTFIYYAMGWYRQAPGTERELVAAITTSRGRTDSADSVKGRVTISRDNAKNTVYLQMNSLKPEDTAVYYCNAVVYTKYYFIPWYPYDYWGHGTQVTVSS | high polyreactivity
QVQLVESGGGVVQAGGSLRLSCASSGRTFSRYTMGWYRQAPGKERELVAVITASGTSTYYADSVKGRFTISRDNAKYTVYLQMISQKPEDTAVYYCAAYYPTYYRYSSLTMNYWGQGTQVTVSS | high polyreactivity
QVQLVESGGLLVQAGGSLRLSCAASGSTFYYNDMGWYRQAPGKEREFVAAISSRGGSTYDADSVKGRFTISRDNAKNTVYLQMNSLKPEDTAVYYCAAKDRHRYDWGQGTQVTVSS | high polyreactivity
QVQLVESGGLLVQAGGSLRLTCAASGSTFGRNAMGWYRQATGKERQLVAAITASGGTTYYADSVKGRFTISRDNAKNTVYLHMNSLKPEDTAVYDCARAGHFSFKYDYWGQGTQVTVSS | low polyreactivity
QVQLVESGGRIVQAGGSLRLSCAASGIIFYLYTMGWYRQAPGKERQFVADISSGTTTYYADSVKGRFTISRDNAKNTVYLQMNSLKPADSAVYYCAAQLFRELYWGQGTQVTVSS | high polyreactivity
QVQLVESGGRKVQAGGSLRLICAASGSIFYAYTMGRYRQAPGKERELSTYADSVKGRFTISRDNAKNTVYLQMNSLKPEDTAVYYCNARFYKKTLSYRVKYRMEYWGQGTQVTVSS | low polyreactivity
QVQLVESGGRLFQAGGSLRLSCAASGRNFCRYVMGWYRQAPGKERELVATISSGGSTNYADSVKGRFTISRDNAKNTVYLQMNSMKTEVTAVYYSAAYIYDGFWVYPYYPYDYWGQGTQVTVSS | low polyreactivity
QVQLVESGGRLGQAGGSLRLRCAASGYNFGTYDMGWYRPAPGKERELVAAISIGGSTNYADSVKGRFTISRDNAKNTVYLQMNSLKPEDTAVYYCAAEVNVGTLLLSVIVEDGDYWGQGTEVTVSS | low polyreactivity
QVQLVESGGRLVKAGGSLRLSCPASGRIFADYAMGWYRQAPGKESELVADIRRSGGRTYYADSVKGRFTISRDNAKNTVYIQMNSLKPEDTAVYYCATDYGSWGDYSGNYDYWGQGTQVTVSS | low polyreactivity
QVQLVESGGRLVQAGGILRLSCAASGSTFDKNAMGWYRQAPGKERQLVAAINNGGGTTYYADSVKGRFTISRDNAKNTVYLQMNSLKPEDTAVYYCAAVGKAYWSDYQYRYYYWGQGTQVTVSS | low polyreactivity
QVQLVESGGRLVQAGGRLRLRSAASGFTFSRNAMGWYRQAPGKERELVAAIDSGGSTDYAVSVKGRFTISRDNAKNTVYLQMNSLKPADTAVYYCAKASSATRYVQLRQDYDYWGQGTQVTVSS | low polyreactivity
QVQLVESGGRLVQAGGSLRISRAASGFTFPSYTMGWYRQAPGKERELVAAITSSGGNTYYADSVKGRFTISRDNAKNTVYLQMNSLKPEVTAVYYCATVSVRWPSNDHVRYDYWGQGTQVTVSS | low polyreactivity
QVQLVESGGRLVQAGGSLRLICADSGGIFGRYAMGWSRQAHGKERELVAAISKNGDSTYYAYSVKGRFTISRDNAKNTVYLKMNSLKPEDTAVYYCAAAKYRPKYGKNDYLGQGTQVTVSS | low polyreactivity
QVQLVESGGRLVQAGGSLRLRCAASGFIFGWYTMGWYRQAPGKERELVASISRSGGSTYYADSVKGRFTISRDNEKNTVYVQMNSLKPEDTAVSYCAKRSLVDAHGYWGQGTQVTVSS | high polyreactivity
QVQLVESGGRLVQAGGSLRLSCAASGFIFAYNAMGWYRQAPGKERELVAAISWSGGSTYYADSVKGRFTISRDNAKNTVYLQMNSLKPEDTAVSYCNKYIRYPFKRYGYWGQGTQVTVSS | high polyreactivity
QVQLVESGGRLVQAGGSLRLSCAASGFIFGTYAMGWYRQAPGKEREFVAAITRSGSSTYYADSVKGRFTISRDNAKNTVYLQMNSLKPEDTAVYYCAADLTRGRFRYYYWGQGTQVTVSS | high polyreactivity
QVQLVESGGRLVQAGGSLRLSCAASGFIFVGNDMAWYRQAPGKVRELVAAISSGGTTNYADSVKGRFTNSRDNAKNTVYLQMNSLKPEDTAVYDCAADYDYRQGYDSVHLDYWGQGTQVTVSS | low polyreactivity
QVQLVESGGRLVQAGGSLRLSCAASGFIFYSYDMGWYRQAPGKERELVAAIDSRGVNTYYADSVKGRFTISRDNAKNTVYLQMNSLKPEDTAVYYCAAEVVYPVYEYDYWGQGTQVTVSS | low polyreactivity
